# Assays:
# Slo-1 [1] = biological target: T1, Slo-1 (Homo sapiens, UniProt Q12791); test: Whole-cell voltage-clamp of membrane currents in HEK293 cells expressing Slo-1 alone; type: cell-based; design: expressed in transfected cells; host or cells: HEK293; conditions: Slo-1 alone in HEK293 cells, 250 ms depolarizing steps from holding potential -80 mV; for inhibition (block) of membrane currents: CTX 100 nM
# Method: (§1) FIGS. 6A-B. Slo-1/BKB3 forms BK type II-like charybdotoxin—(CTX) insensitive channels. Slo-1 (A) or Slo-1+BK beta 3 (B) were expressed in HEK293 cells and membrane currents measured using the whole-cell voltage-clamp technique. […]. In contrast, membrane currents in cells co-expressing Slo-1 and BK beta 3 were TEA (5 mM) sensitive but CTX (100 nM) insensitive (FIG. 6B). Similar recordings were made from 4 cells expressing Slo-1 alone and 6 cells co-expressing Slo-1/BKB3. Scale bars represent 1 nA and 200 ms.
# Slo-1/BKB3 = biological target: T2, Slo-1/BKB3 (Homo sapiens, UniProt Q12791); test: Whole-cell voltage-clamp of membrane currents in HEK293 cells co-expressing Slo-1 and BK beta 3; type: cell-based; conditions: Slo-1 + BK beta 3 in HEK293 cells, 250 ms depolarizing steps from holding potential -80 mV; for sensitivity (block) of membrane currents: CTX 100 nM
# T2 construct: expressed in transfected cells; host or cells: HEK293
# T2 sequence (Q12791 whole entry): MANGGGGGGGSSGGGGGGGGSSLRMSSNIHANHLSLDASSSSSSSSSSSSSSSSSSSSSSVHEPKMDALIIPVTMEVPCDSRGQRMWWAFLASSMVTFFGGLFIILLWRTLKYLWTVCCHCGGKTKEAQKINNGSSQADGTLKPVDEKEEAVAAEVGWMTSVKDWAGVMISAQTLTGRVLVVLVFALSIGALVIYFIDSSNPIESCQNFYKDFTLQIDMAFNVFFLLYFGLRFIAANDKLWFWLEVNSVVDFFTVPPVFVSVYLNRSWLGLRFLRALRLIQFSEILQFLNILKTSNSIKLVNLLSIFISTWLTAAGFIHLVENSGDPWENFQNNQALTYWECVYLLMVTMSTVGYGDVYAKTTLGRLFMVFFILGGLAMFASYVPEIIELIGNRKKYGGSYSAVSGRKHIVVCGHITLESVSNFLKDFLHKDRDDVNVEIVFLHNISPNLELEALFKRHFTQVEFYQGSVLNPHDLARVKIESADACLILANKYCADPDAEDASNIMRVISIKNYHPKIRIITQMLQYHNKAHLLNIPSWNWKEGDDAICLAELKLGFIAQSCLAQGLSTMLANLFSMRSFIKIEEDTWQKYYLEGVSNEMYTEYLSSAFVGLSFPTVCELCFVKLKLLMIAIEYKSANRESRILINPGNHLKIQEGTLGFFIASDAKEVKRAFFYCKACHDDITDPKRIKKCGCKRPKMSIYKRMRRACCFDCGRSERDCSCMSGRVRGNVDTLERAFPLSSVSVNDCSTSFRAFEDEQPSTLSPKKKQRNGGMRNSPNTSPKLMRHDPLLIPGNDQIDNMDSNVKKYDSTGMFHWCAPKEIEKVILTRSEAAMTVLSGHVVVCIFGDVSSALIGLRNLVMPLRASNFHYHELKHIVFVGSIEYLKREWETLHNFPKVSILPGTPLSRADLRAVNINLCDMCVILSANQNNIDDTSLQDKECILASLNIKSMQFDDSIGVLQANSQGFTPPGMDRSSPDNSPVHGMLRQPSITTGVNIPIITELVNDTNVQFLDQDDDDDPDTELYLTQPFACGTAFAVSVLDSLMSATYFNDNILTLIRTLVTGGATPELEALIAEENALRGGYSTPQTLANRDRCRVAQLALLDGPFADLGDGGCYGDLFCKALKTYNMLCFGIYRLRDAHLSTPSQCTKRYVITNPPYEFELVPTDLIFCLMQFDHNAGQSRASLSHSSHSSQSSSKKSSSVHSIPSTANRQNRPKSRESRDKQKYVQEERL
# T2 sequence (Q86W47 whole entry W137E partner): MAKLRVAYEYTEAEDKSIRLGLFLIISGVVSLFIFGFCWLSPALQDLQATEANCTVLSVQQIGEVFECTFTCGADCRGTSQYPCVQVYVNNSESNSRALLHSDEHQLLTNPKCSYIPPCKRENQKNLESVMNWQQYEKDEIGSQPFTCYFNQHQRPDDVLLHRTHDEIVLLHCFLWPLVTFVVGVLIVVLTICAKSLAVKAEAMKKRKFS
# Method: as §1
# Slo-1 [2] = biological target: T1, Slo-1; test: cell-based or functional assay
# T1 sequence (Q12791 whole entry): as the sequence (Q12791 whole entry) above
molecule,measurement,setting,value
CC[N+](CC)(CC)CC [TEA],inhibition of membrane currents,Slo-1 [1]; TEA 5 mM,strongly inhibited
same,sensitivity of membrane currents,Slo-1/BKB3; TEA 5 mM,sensitive
charybdotoxin [CTX],inhibition (block) of membrane currents,Slo-1 [1],strongly inhibited
same,inhibition (block) of membrane currents,Slo-1 [1]; listed as charybdotoxin,almost completely blocked
same,sensitivity (block) of membrane currents,Slo-1/BKB3,insensitive
same,sensitivity (block) of membrane currents,Slo-1/BKB3; listed as charybdotoxin,virtually unblocked
human BK beta 3,"shift of the Slo-1 activation curve (V1/2 act), patch clamp, 50 uM free Ca2+",Slo-1 [2],15 mV

# From patent US6432645B1, “Beta subunits of Slo family potassium channels” (ICAgen Inc., priority 1999, dated 2002)
